Assay results reported in patent publication US20230181772A1 (CITY OF HOPE, published 2023).
Substitutions are numbered along the chain they refer to. Names may count otherwise. Blank lines part the entries; values can stand above or below the binder they belong to.

Tests used:
[1] = target: T1, recombinant human PSCA-mouseFc fusion protein (human, UniProt O43653 12-83, limits assumed); experiment: saturation binding ELISA on immobilized hPSCA-mFc (1 ug/mL), half-maximal binding, one-site specific binding fit, 3 experiments
T1 construct: also called hPSCA-mFc; Recombinant human PSCA mouse Fc fusion protein (UCLA); not shown: mouse Fc
T1 sequence: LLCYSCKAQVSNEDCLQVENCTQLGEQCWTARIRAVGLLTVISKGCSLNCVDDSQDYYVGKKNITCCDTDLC
Experimental: Western Blot was also used to test antigen specificity. Recombinant human PSCA mouse Fc fusion protein (UCLA) was blotted and anti-PSCA scFv-Fc variants were tested for binding. Specificity and affinity of antigen binding was further evaluated by performing saturation binding on immobilized antigen in ELISA. Specific binding was fitted using the “one site-specific binding” equation to determine the Kd (ligand concentration that binds half the antigen sites at equilibrium) and Bmax (maximum number of binding sites).
Saturation binding of the anti-PSCA scFv-Fc fragments was tested in ELISA in 3 independent experiments with duplicates. Binding of serial dilutions (1 μM-[…]) of A2scFv-Fc2 and A2scFv-Fc2DM to immobilized recombinant hPSCA-m Fc (1 μg/mL) was specific and dose-dependent (FIG. 6).

[2] = target: T2, human prostate stem cell antigen (PSCA) on the cell surface (human, UniProt O43653 12-83); experiment: flow cytometry titration on PSCA-expressing cells, apparent on-cell affinity (half-maximal binding)
T2 construct: Expressed on transduced cell lines (22Rv1-hPSCA, RM9-hPSCA, KPC-hPSCA) or endogenously on Capan-1; also called hPSCA; 22Rv1-PSCA
T2 sequence: T1 sequence
Experimental: The capability of the anti-PSCA antibody fragments to bind to PSCA expressed on the cell surface was analyzed by flow cytometry. Antigen specificity was confirmed using PSCA-positive and negative cell lines. In this assay binding was only seen with 22Rv1-PSCA cells but not with 22Rv1 (FIG. 9A). […] Binding to murine cell lines transduced to express human PSCA and the human pancreatic cancer cell line Capan-1 was also confirmed using the A2scFv-Fc2 (FIG. 9C).

BSA = target: T3, BSA (UniProt P02769 25-607); experiment: ELISA, control wells blocked with BSA
T3 construct: Negative control coating in the ELISA; also called BSA coated wells
T3 sequence (P02769 25-607 limits assumed): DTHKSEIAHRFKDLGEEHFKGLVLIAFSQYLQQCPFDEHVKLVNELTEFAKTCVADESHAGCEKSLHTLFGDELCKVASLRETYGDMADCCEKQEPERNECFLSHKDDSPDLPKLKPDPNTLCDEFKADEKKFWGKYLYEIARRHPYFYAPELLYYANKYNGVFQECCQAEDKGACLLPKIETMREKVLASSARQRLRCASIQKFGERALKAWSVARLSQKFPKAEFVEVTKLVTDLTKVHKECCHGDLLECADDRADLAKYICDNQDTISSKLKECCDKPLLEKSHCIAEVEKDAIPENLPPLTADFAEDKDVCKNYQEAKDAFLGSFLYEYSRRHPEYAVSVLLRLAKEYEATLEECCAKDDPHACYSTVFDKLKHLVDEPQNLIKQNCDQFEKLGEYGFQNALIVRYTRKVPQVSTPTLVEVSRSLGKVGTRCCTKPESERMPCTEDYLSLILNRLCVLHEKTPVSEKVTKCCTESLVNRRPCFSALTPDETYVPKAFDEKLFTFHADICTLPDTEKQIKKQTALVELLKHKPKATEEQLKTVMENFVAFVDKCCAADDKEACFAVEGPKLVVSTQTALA
Experimental: For further confirmation of specific antigen binding ELISA was used to detect binding of A2scFv-Fc2 and A2scFv-Fc2DM to immobilized antigen hPSCA-mFc (FIG. 5). Different concentrations of hPSCA-mFc were coated (1, 3 and 5 μg/mL in PBS, 100 μL/well) overnight, control wells were blocked with BSA. Presence of immobilized antigen was detected using goat anti-mouseFc-AP. […] No nonspecific binding to BSA coated wells was detected.

Kd [1]: 0.5 nM | Kd [2]: 1.2 nM | binding result (BSA): no binding
B1: A2scFv-Fc2 (Fc fusion)
chain: EVQLVESGGGLVQPGGSLRLSCAASGFNIKDYYIHWVRQAPGKGLEWVAWIDPEYGDSEFVPKFQGRATMSADTSKNTAYLQMNSLRAEDTAVYYCKTGGFWGRGTLVTVSSGGGGSGGGGSGGSAQDIQLTQSPSSLSASVGDRVTITCSASSSVRFIHWYQQKPGKAPKRLIYDTSKLASGVPSRFSGSGSGTDFTLTISSLQPEDFATYYCQQWGSSPFTFGQGTKVEIKVECPPCPAPPVAGPSVFLFPPKPKDTLMISRTPEVTCVVVDVSHEDPEVQFNWYVDGMEVHNAKTKPREEQFNSTFRVVSVLTVVHQDWLNGKEYKCKVSNKGLPAPIEKTISKTKGQPREPQVYTLPPSREEMTKNQVSLTCLVKGFYPSDIAVEWESNGQPENNYKTTPPMLDSDGSFFLYSKLTVDKSRWQQGNVFSCSVMHEALHNHYTQKSLSLSPGK
notes: Homodimer of two scFv-Fc peptides: anti-PSCA A2 VH-VL scFv with a (G4S)2-GGSAQ linker, truncated human IgG2 hinge and Fc; Made in FreeStyle 293-F cells, glycosylated at Asn-297; also called anti-PSCA scFv-Fc2

Kd [1]: 0.8 nM | Kd [2]: 0.65 nM | binding result (BSA): no binding
B2: A2scFv-Fc2DM (Fc fusion)
chain: B1 chain with H319A, H444Q
notes: Homodimer; also called A2scFv-FcDM; double mutant
